Target: the molecule itself
Test: SEC

B1: recombinant soluble signaling lymphocytic activation molecule (sSLAM) with a Flag sequence at the carboxy terminus (natural protein, human, UniProt Q13291-3 21-305, looked up)
chain: ASYGTGGRMMNCPKILRQLGSKVLLPLTYERINKSMNKSIHIVVTMAKSLENSVENKIVSLDPSEAGPPRYLGDRYKFYLENLTLGIRESRKEDEGWYLMTLEKNVSVQRFCLQLRLYEQVSTPEIKVLNKTQENGTCTLILGCTVEKGDHVAYSWSEKAGTHPLNPANSSHLLSLTLGPQHADNIYICTVSNPISNNSQTFSPWPGCRTDPSGKTNHYQTTVEKKSLTIYAQVQKPGPLQKKLDSFPAQDPCTTIYVAATEPVPESVQETNSITVYASVTLPES
stoichiometry N: 2
